Biological target: CTD-HAP40 complex bearing a C-terminal biotin tag (UniProt P23610)
Assay: BLI

Sequence of UniProt P23610 (P23610 whole entry, looked up, one chain of several): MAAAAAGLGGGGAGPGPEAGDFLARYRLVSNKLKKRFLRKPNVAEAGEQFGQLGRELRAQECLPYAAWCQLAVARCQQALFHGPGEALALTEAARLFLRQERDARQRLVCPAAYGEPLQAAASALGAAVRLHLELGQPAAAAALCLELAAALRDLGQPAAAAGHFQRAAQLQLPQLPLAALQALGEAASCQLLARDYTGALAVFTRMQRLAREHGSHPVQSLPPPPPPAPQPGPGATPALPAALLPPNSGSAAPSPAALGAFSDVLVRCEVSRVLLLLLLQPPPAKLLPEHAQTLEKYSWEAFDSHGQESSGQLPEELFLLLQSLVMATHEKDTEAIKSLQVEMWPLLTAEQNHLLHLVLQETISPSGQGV

Question: With “HTT N-terminal HEAT and bridge domain construct (NTD, aa. 97-2069) (domain or fragment)” as the substance, how does the Kd read?
Answer: 10 nM

— doi:10.1101/2022.11.21.516512
